Here are results for 4 substances from article PMC4269863.

pKd: −log10 of the molar value.

Assay [1] has as its target envelope glycoproteins gp120/gp41 of HIV-1 NL4.3 virus with gp41 N611Q (HIV-1 NL4.3).
In assay [2] the target is envelope glycoproteins gp120/gp41 of HIV-1 NL4.3 virus with gp41 N625Q (HIV-1 NL4.3).
For assay [3], the target named is envelope glycoproteins gp120/gp41 of HIV-1 NL4.3 virus with gp41 N637Q (HIV-1 NL4.3).
Assay [4] has as its target envelope glycoproteins gp120/gp41 of HIV-1 NL4.3 virus with gp41 N674Q (HIV-1 NL4.3).
Assay [5] has as its target envelope glycoproteins gp120/gp41 of wild-type HIV-1 NL4.3 virus (HIV-1 NL4.3).
Assay [6] has as its target envelope glycoproteins gp120/gp41 of HIV-1 NL4.3 virus with gp41 N611Q/N637Q (HIV-1 NL4.3).
Assay [7] addresses envelope glycoproteins gp120/gp41 of HIV-1 NL4.3 virus with gp41 N611Q/N637Q/N674Q (HIV-1 NL4.3).
Assay [8] has as its target envelope glycoproteins gp120/gp41 of HIV-1 NL4.3 virus with gp41 N625Q/N637Q (HIV-1 NL4.3).
Assay [9] addresses envelope glycoproteins gp120/gp41 of HIV-1 NL4.3 virus with gp41 N625Q/N637Q/N674Q (HIV-1 NL4.3).
Assay [10] concerns the target envelope glycoproteins gp120/gp41 of HIV-1 NL4.3 virus with gp41 N625Q/N674Q (HIV-1 NL4.3).
Assay [11] concerns the target envelope glycoproteins gp120/gp41 of HIV-1 NL4.3 virus with gp41 N637Q/N674Q (HIV-1 NL4.3).
In assay [12] the target is envelope glycoproteins gp120/gp41 of HIV-1 NL4.3 virus with gp41 N674D (HIV-1 NL4.3).
The target in assay [13] is HIV-1 surface envelope glycoprotein gp120 (immobilised for SPR) (HIV-1 (strain not stated)) (UniProt P04578). The assay is described as follows: SPR; gp120 and gp41 covalently immobilised by amine coupling on a CM4 chip (about 115 and 45 RU), HSA as control surface; CBAs injected as two-fold dilutions; Biacore T200, 25°C, HBS-P (10 mM HEPES, 150 mM NaCl, 0.05% surfactant P20, pH 7.4) with 10 mM CaCl2; 1:1 Langmuir model.

Assay [14] concerns the target HIV-1 transmembrane envelope glycoprotein gp41 (immobilised for SPR) (HIV-1 (strain not stated)) (UniProt P04578). The description is as above.
Another assay addresses soluble CD4 (UniProt P01730). As to the kind of experiment: ELISA; 0.5 μg soluble CD4 coated on maxisorp strips; about 48 ng p24 of virus lysed with Triton-X100 added 1 h at 37°C; bound gp120 detected with sheep antibody D7324; normalised to WT∆Env virus, relative to WT (100%).

actinohivin, sequence (Q9KWN0 47-160): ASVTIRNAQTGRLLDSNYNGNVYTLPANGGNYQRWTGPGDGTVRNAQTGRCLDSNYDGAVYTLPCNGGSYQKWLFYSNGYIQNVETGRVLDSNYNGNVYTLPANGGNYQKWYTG

For “Hippeastrum hybrid agglutinin (natural protein)”, the EC50 of inhibition of cell-free virus infection of C8166 cells (eGFP, flow cytometry, 72 h) in [1] came out at 1.6 nM; in assay [2], 1.4 nM; in [3], 3.7 nM; in [4] it was 1.3 nM; in assay [5] it was 0.9 nM; in [6], 2.7 nM. Moreover, the EC50 of inhibition of cell-free virus infection of C8166 cells (eGFP, flow cytometry, 72 h) in assay [7] was found to be 2.8 nM; in assay [8], 1.4 nM; in assay [9], 2.1 nM; in [10], 1.3 nM; in assay [11], 1.6 nM; in assay [12], 1.9 nM. Besides, the pKd was 9.30 in [13] and 9.40 in assay [14].
Regarding “actinohivin (from UniProt Q9KWN0 47-160) (natural protein)”, the EC50 of inhibition of cell-free virus infection of C8166 cells (eGFP, flow cytometry, 72 h) in assay [1] was determined as 5.4 nM; in assay [2], 8.1 nM; in assay [3], 15 nM; in [4] it was 8.3 nM; in assay [5], 5.2 nM; in assay [6], 3 nM. In addition, the EC50 of inhibition of cell-free virus infection of C8166 cells (eGFP, flow cytometry, 72 h) in assay [7] amounted to 3.6 nM; in [8], 3.8 nM; in assay [9] it was 3.2 nM; in [10], 3.2 nM; in assay [11] it was 4.3 nM; in assay [12] it was 2.1 nM. For the same substance, the pKd is 7.85 in assay [13] and 8.70 in [14].
Regarding “envelope glycoproteins gp120/gp41 of HIV-1 NL4.3 virus with gp41 N625Q (complex)”, the binding efficiency, percent of WT with soluble CD4 is 130 % of WT.
Regarding “Urtica dioica agglutinin (natural protein)”, the EC50 of inhibition of cell-free virus infection of C8166 cells (eGFP, flow cytometry, 72 h) was determined as 32 nM in [1]; 27 nM in [2]; 57 nM in assay [3]; 32 nM in [4]; 25 nM in [5]; 63 nM in assay [6]. Besides, the EC50 of inhibition of cell-free virus infection of C8166 cells (eGFP, flow cytometry, 72 h) in assay [7] was 52 nM; in assay [8], 51 nM; in assay [9], 35 nM; in [10] it was 30 nM; in [11], 28 nM; in [12], 34 nM. The pKd in assay [13] is 8.05; in assay [14] it was 8.43.
